# Reference: the RNAGym collection of RNA variant scans (doi:10.1073/pnas.2313332121)
# B1: TPR t1 (parent)
# chain: GACCAAUCUGCCCUCAGAGCUCGAGAACAUCUUCGGAUGCAGAGGAGGCAGGCUUCGGUGGCGCGAUAGCGCCAACGUCCUCAACCUCCAAUGCAUCCCACCACAUGAUGAUGCCUGAAGAGCCUUGGUUUUUUG
# Variants of: B1
# Assay: polymerase ribozyme fitness, log enrichment relative to wild type (log ratio); higher = more active; in vitro selection for triplet polymerase activity
# How it was run: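 Only genotypes with ≥10 input reads and ≥1 read per output were kept after Illumina sequencing of input and output libraries. These libraries were PCR-built, transcribed mutants of each subunit of a heterodimeric triplet polymerase ribozyme, each put through one triplicate in vitro selection round with frozen incubation at −7 °C, gel excision of extended constructs, streptavidin-bead capture and RT-PCR. Fitness is a logarithmic ratio of genotype enrichment to wild-type enrichment, from inverse-variance-weighted replicate averages, with the logarithm in base 2.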
row,Variant,polymerase ribozyme fitness (log ratio)
1,C12G C102A,-1.85
2,C12G C102U,-1.38
3,C12G C28G,-1.82
4,C12U G17U A50G G63U,-3.39
5,C12G C101G C102G G110C,-5.71
6,C12G U112A,1.99
7,C12G C28U G71U C124U,-0.951
8,C12U A43U G77A C85U U112A,-0.51
9,C12U C85U U112C,0.732
10,C12G C123A U126C,0.201
11,C12G U14A C62A C86A C102A G120C U129A,-7.34
12,C12U C15A,-0.528
13,C12U C22U A46U,-4.76
14,C12U C62U G69A,-3.66
15,C12G C28U C124U,-0.261
16,C12G U132A,-0.729
17,C12U C73U C97A G110U C115A C124G,-6.74
18,C12G C98U,-0.616
19,C12G C64U U133A,-0.644
20,C12U C62G C85A C88U,-2.72
21,C12G U30C,-2.82

row,Variant,polymerase ribozyme fitness (log ratio)
1,C12G C70A A118G,-0.792
2,C12U A41U G71U A103U A118U,-6.98
3,C12U C70A C88U U129C,-1.99
4,C12U C31U,-4.34
5,C12U G36A A66C U78C C82G A121U,-0.787
6,C12U C70U G71U U112A C123G,0.00675
7,C12U C15A A37C G52U C72U U116G,-3.77
8,C12U A29G U125A,-1.53
9,C12U C73U A95U A111U,-2.86
10,C12G C62G C82A,-1.16
11,C12U A83C C114A C123G C124G,-0.26
12,C12U C49A C62A C70A U78A,-4.12
13,C12U A26U U32G A46C G48U A50G A74U C94G C114G,-7.12
14,C12G C70A A75U U112A G113U G120C U133G,-2.57
15,C12U G17C C72G C82G U112C C123U U131C,-3.8
16,C12U C102U,-1.83
17,C12U C53G G61C,0.0604
18,C12G C62G,-1.6
19,C12U C40A C99U,-4.01
20,C12U A84C C102A,-1.99
21,C12U C15A G52A,-0.639

row,Variant,polymerase ribozyme fitness (log ratio)
1,C12U A26G C64A C73U G110C,-5.13
2,C12U,0.39
3,C12U C15U C49A C73G C101U U133G,-1.62
4,C12G C49G,-0.51
5,C12U C13G,-0.258
6,C12G U55C A90C,-1.45
7,C12U A29G A50U A91G,-3.08
8,C12U C20U A46U U54C C56A U87G A91U,-3.03
9,C12U A26U C28U C72U C123G,-5.39
10,C12G U78G C102U,-1.99
11,C12G C40G C62U,-0.941
12,C12U C82U,0.282
13,C12G U30G C72G C101A U106A A119U C123U,-5.26
14,C12G G117U,-1.22
15,C12U C98A,-4.29
16,C12U C97A,-3.91
17,C12U A46C C53G U106A,-0.663
18,C12U C13G A37U U54G C73U C123U,1.09
19,C12U C22A G39A C85A C102A,-7.04
20,C12U A26U G39C G110A,-5.25
21,C12U G36C G45A,-0.823

row,Variant,polymerase ribozyme fitness (log ratio)
1,C12U C88U,0.381
2,C12U C88A,-0.264
3,C12U C72U C86U U112C,1.05
4,C12U C13U A74U C97A C123U C124A,-4.56
5,C12U C85U A95C,-1.78
6,C12G G69U,0.711
7,C12G C56U U78A A90C C114U,-2.46
8,C12U A16U C22G C99U,-3.39
9,C12G C102U A119G C124U U125A,-0.278
10,C12U A75U,0.0801
11,C12U A26U C34G A50U C79U A83C C85G G110A A111C,-7.36
12,C12U A46U C53U C79A A83U U130A,-4.07
13,C12U C28U U78A A100C G113A,-3.61
14,C12G C62U A105C,-2.46
15,C12G C56A C82A,-0.693
16,C12U A74G A83C C114A C123G C124G,-1.02
17,C12U C80U G110A U130C,-0.275
18,C12U A29G,-1.25
19,C12U A29U,-2.12
20,C12G G17C U87G C97A C123G,-6.84
21,C12U C15U G61C C104U,-1.43
